Consider one substance from US20200352839.

For the data set, the system named is Compound E7 (CTP-Cas1-FINA).

For caspase-1, the “HPLC analysis after treatment with caspase-1 (cleavage)” value was “the compound is cleaved into two moieties, that is, finasteride and the protein transduction domain”.
